Assay in all cases: cell-based or functional assay
Assay [1] addresses insulin receptor subtype A (human), P06213.
Assay [2] has as its target insulin receptor subtype B (human), P06213.
For assay [3], the target named is human IGF-1 receptor (human) (UniProt P08069).
Assay [4] addresses insulin receptor subtype A (human) (UniProt P06213).
For assay [5], the target named is insulin receptor subtype B (human) (UniProt P06213).

The text below walks through data of US20150299285A1.

Bridges are numbered along the chain shown (N, C = ends). Primed or numbered codes have the meaning given here. Where no end group is shown, it is not given here. [ ]: non-standard residue; d: D form. PEG4′ = non-peptide PEG4 spacer in the linking moiety; PEG8″ = non-peptide PEG8 spacer in the linking moiety

GPEHLCGAELVDALYLVCGDRGFY[PEG8″]K(PEG 20 kDa)[PEG4′]GIVDECCFRSCDLRRLENYCN (ligand, disulfide 18-47, 33-38, 6-34) [MIU-56: C8-PEG20K B^1(H5, Y16, L17)25-PEG8-K-PEG4-A^1(N18, N21)] returned a % Insulin Activity (in vitro; assay not stated) in assay [1] of 14.8%.

B1: MIU-68: B0, B22-PEG10K di-PEGylated B^1(H5,Y16,L17, K22)25-C^1(K8)-A^1(N18,21) (ligand)
chain: {PEG 10 kDa}-GPEHLCGAELVDALYLVCGDK(PEG 10 kDa)GFYGYGSSSRKAPQTGIVDECCFRSCDLRRLENYCN
modifications: disulfide 18-56, 42-47, 6-43
As for B1, the % Insulin Activity (in vitro; assay not stated) in assay [1] was 0.4%; in assay [2], 0.1%.

B2: MIU-67: B0, C8-PEG10K di-PEGylated B^1(H5,Y16,L17)25-C^1(K8)-A^1(N18,21) (ligand)
chain: {PEG 10 kDa}-GPEHLCGAELVDALYLVCGDRGFYGYGSSSRK(PEG 10 kDa)APQTGIVDECCFRSCDLRRLENYCN
modifications: disulfide 18-56, 42-47, 6-43
Regarding B2, the results for the % Insulin Activity (in vitro; assay not stated) in assay [1] and in assay [2] were 0.2% and 0.1%, respectively.

B3: MIU-57: B1-PEG20K B^1(H5,Y16,L17)25-C^1-A^1(N18,21), P05019 49-110 (ligand)
chain: {PEG 20 kDa}-GPEHLCGAELVDALYLVCGDRGFYGYGSSSRRAPQTGIVDECCFRSCDLRRLENYCN
modifications: disulfide 18-56, 42-47, 6-43
Turning to B3, the % Insulin Activity (in vitro; assay not stated) in assay [1] was determined as 3.1%; in assay [2], 1.1%.

B4: MIU-69: B0, A14-PEG10K di-PEGylated B^1(H5,Y16,L17)25-C^1(K8)-A^1(K14, N18,21) (ligand)
chain: {PEG 10 kDa}-GPEHLCGAELVDALYLVCGDRGFYGYGSSSRKAPQTGIVDECCFRSCDLK(PEG 10 kDa)RLENYCN
modifications: disulfide 18-56, 42-47, 6-43
On to B4, for which the % Insulin Activity (in vitro; assay not stated) in assay [1] was found to be 1%; in assay [2], 0.5%.

B5: MIU-58: B1-PEG20K-B1- Dimer, P05019 49-110 (ligand)
chain: {PEG 20 kDa}-GPEHLCGAELVDALYLVCGDRGFYGYGSSSRRAPQTGIVDECCFRSCDLRRLENYCN
modifications: disulfide 18-56, 42-47, 6-43; also: dimer: two chains linked head to head via 20 kDa PEG
As for B5, the values for the % Insulin Activity (in vitro; assay not stated) in assay [1] and in assay [2] were 19.7% and 5.8%, respectively.

B6: MIU-35: B^1(H5, H10, Y16, L17)25-C^1-A^1 (H8, N18, N21) (ligand)
chain: GPEHLCGAHLVDALYLVCGDRGFYGYGSSSRRAPQTGIVDECCHRSCDLRRLENYCN
For B6, the % Insulin Activity (in vitro; assay not stated) in assay [1] came to 61.4%; in assay [2], 17.4%.

B7: DP19LysC (ligand)
chain: GPEHLCGAHLVDALYLVCGDRGFYGYGSSSRRAPQTGIVDECCHRSCDLRRLENYCN
Take B7: the figures for the EC50, Receptor Phosphorylation in assay [3], in assay [4] and in assay [5] were 20.7 nM, 0.3 nM and 1.2 nM, respectively.
